This is an account of results in article PMC10207940, “Characterization of RBD-specific cross-neutralizing antibodies responses against SARS-CoV-2 variants from COVID-19 convalescents” (Frontiers in Immunology, 2023).

Bounds are passed on as bounds.

The target of assay [1] is T1, SARS-CoV-2 RBD (receptor binding domain) with Avi-tag, biotinylated (SARS-CoV-2, WH-1 (Wuhan-Hu-1, MN908947), UniProt P0DTC2).
T1 construct: also called recombinant RBD protein probe; biotinylated RBD; not shown: Avi-tag, C-terminal, kept
Kind of assay: BLI; biotinylated RBD (5 μg/mL in PBST: PBS, 0.02% Tween 20, 0.1% BSA) immobilised on streptavidin biosensors; antibodies 500-7.8125 nM, 120 s association, 300 s dissociation; 1:1 binding model. The settings on record: both partners purified. Background: Biolayer interferometry detects binding as a change in optical thickness at a sensor tip.

Assay [2] has as its target T1, SARS-CoV-2 RBD (receptor binding …). The assay is described as follows: cell-based or functional assay.
For assay [3], the target named is T2, SARS-CoV-2 RBD as crystallised with 3G10 and 3C11 (SARS-CoV-2, prototype (WH-1)).
T2 construct: also called prototype (PT) RBD
The assay is described as follows: crystal structure. The settings on record: both partners purified.

B1: antibody 1D7 (antibody, V domains shown)
VH: QVQLVQSGAEVKTPGSSVKVSCKASGGSFSNYAISWVRQAPGQGLEWMGRIIATLGISNYAQKFQGRVTMTADKSTSTAYMELSSLRSEDTAVYYCASPITNFGVLIEVDAFHIWGQGTMVTVSS
VL: EIVLTQSPFTLSLSPGERATLSCGASQSVSSSYLAWYQQKPGLAPRLLIYDGSSRATDIPDRFSGSGSGTDFTLTISRLEPEDFAMYYCQQYSTSPLTFGGGTKVEIK
In the case of B1, in assay [1], the Kd was < 0.001 nM. Besides, in assay [2], the “IC50 of neutralisation of SARS-CoV-2 pseudovirus (WH-1), luciferase read-out on Vero cells” value (“IC50 … luciferase read-out on Vero cells” for short) was < 0.1 µg/mL and the “IC50 of neutralisation of authentic SARS-CoV-2 WH-1 virus, CPE-based method on Vero cells” value (“IC50 … CPE-based method on Vero cells” for short) was 0.009 µg/mL.

B2: antibody 3G10 (antibody, V domains shown)
VH: EVQLVESGGGLVQPGESLRLSCAASGLTVSSNYMSWVRQAPGKGLEWVSVIYAGGSTFYADSVKGRFTISRDNSKNTLYLQMNSLRAEDMAIYYCARDLSYYGMDVWGQGTTVTVSS
VL: DIQLTQFPFSLSASVGDRVTITCRASQGISTYLAWYQQKPGRAPKLLIYAASTLQSGVPSRFSGSGSGTEFTLTISSLQPEDFATYYCQLLNSYPVHFGQGTKLEIK
With B2, the Kd in assay [1] turned out to be 1.37 nM. The binding result in assay [3] is reported as “binds”. For the same molecule, in assay [2], the “IC50 … luciferase read-out on Vero cells” value was < 0.1 µg/mL and the “IC50 … CPE-based method on Vero cells” value stood at 0.028 µg/mL.

B3: antibody 3C11 (antibody, V domains shown)
VH: EVQLVESGGGLVQPGGSLRLSCAASGFAFSTYEMNWVRQAPGKGLEWVSYIHNSGNPVYYADSVKGRFTISRDNAENSLYLQMNSLRAEDTAIYYCARALRYSTSWYDYWGQGTLVTVSS
VL: EIVLTQSPVSLSLSPGERATLSCRASQSVSSYLAWYQQKPGQAPRLFIYDASKRATGIPARFSGSGSGTDFTLTISSLEPEDFAVYYCQQRSNWPRTFGQGTKVEIK
In the case of B3, in assay [1], the Kd is 5.29 nM. The binding result in assay [3] is “binds”. Moreover, in assay [2], the “IC50 … luciferase read-out on Vero cells” value is < 0.1 µg/mL and the “IC50 … CPE-based method on Vero cells” value came out at 0.028 µg/mL.

One may read the Kd as the concentration at which binding is half-saturated. Higher therefore signals weaker binding.
